From the supplement of paper PMC9170038

Test system: MS2 coat protein
Experiment: apparent KD of MS2 coat protein; higher = weaker reporter binding
Conditions: Eterna round: R107
In short: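 On-chip transcription from Illumina sequencing clusters produced the designed RNA switches. These were titrated with SNAP-549-labelled MS2 coat protein (twofold steps, 0.7 or 1.5 nM to 3 µM) in 100 mM Tris-HCl pH 7.5, 80 mM KCl, 4 mM MgCl2, with or without constant ligand. The apparent KD given is the per-design median of normalised cluster binding-curve fits.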

[1] = input ligand: theophylline 20 uM
[2] = input ligand: theophylline 2 mM
[3] = input ligand: tryptophan 2.4 mM

Row | Sequence | apparent KD of MS2 coat protein (input ligand: arginine 13.2 mM) | apparent KD of MS2 coat protein [1] | apparent KD of MS2 coat protein [2] | apparent KD of MS2 coat protein [3] | apparent KD of MS2 coat protein (input ligand: none)
1 | GAGUAGAAGACGGCCGCCACUAAACAUGAGGAUCACCCAUGUCGUGAUCCGUUACCUAGAGUAGAUAGGACCGGGUCAUAUAGUC [Exclusion Tryptophan B GF 15] | 27.5 nM | 41.5 nM | 30.2 nM |  | 
2 | CUUGGUAGAUCCUAGCUGCCAAGAGGUGAUACCAGCAUCGAAAGAUGCCCUUGGCAGCACCAACAUGAGGAUCACCCAUGUAAUA [(MT)''-(M)'-(T')-(Theo)-(Ms2)_Design1/22_4] | 24.3 nM | 178 nM |  | 77.4 nM | 
3 | UGUAACAUGAGGAUCACCCAUGUGAGUGAUACCAGACUAGUGUUAGUCCCUUGGCAGCACGCUGGGCGAGUGUGUAGUCUAUGCG [Same State - Theophylline A (Freestyle 16)] | 60.9 nM | 136 nM | 117 nM | 105 nM | 108 nM
4 | AUAACUGUCAAGGAAGGUGAUCCAGCAGAUACCAGCUAGGAAACUAGCCCUUGGCAGCUGCAACAUGAGGAUCACCCAUGUAAUA [(T)'-(M)'-(T1)-(T2)-(M1)-(M2)_Design9] | 61 nM | 135 nM |  | 59.3 nM | 
5 | UUCGCUGAGGGAAGGAGCGUGAAGACAUGAGGAUCACCCAUGUAGAGGCGCCGAAGGCGUUCGCAGGUAGGUCGCCCUCAGUGAG [#1 Same State - Arginine B Attempt #23 (HarryS)] | 17.1 nM | 24.7 nM | 17.7 nM | 17.3 nM | 16.4 nM
6 | UUAAAUGUGACGGAUACCAGCGUGUUGUAGAACAUGAGGAUCACCCAUGUAGUGAUCAUGCGCCCUUGGCAGCUGGUAUGUUUGA [7.aA] | 189 nM | 543 nM |  | 480 nM | 
7 | AGACAUGAGGAUCACCCAUGUAGUACGGAUACCAGAUCCAGAUGUAUCCCUUGGCAGCUGUGGUACAGCGUUGCAUCGCUCCUAG [Exclusion - Theophylline A (Freestyle 19)] | 13.1 nM | 20.6 nM | 20.1 nM | 14.4 nM | 16.6 nM
8 | UUGGGUUUGUGAAGGAGCGGGAAAGUUUUAUAGUGGAUCCUAACAUGAGGAUCACCCAUGUCCCAGGUAGGUCGCGCGGGUUUGG [12.R] | 60.7 nM | 182 nM | 152 nM | 107 nM | 182 nM
9 | GCACAUGAGGAUCACCCAUGUACAACUGAAGGAGCGAGACAGAACUCAGGUAGGUCGCAGACUGCACAAUUGCGGACGACAUGGG [Exclusion Arginine A GF21] | 25.8 nM | 44.1 nM | 40.9 nM | 30.1 nM | 34.2 nM
10 | CGGGUUCGGGCGGCCGCCACUUUGAUUGGGUGUGACAUGAGGAUCACCCAUGUUGUGGGUGAUCGGAGGACCGGGUUUGGGCUUG [Fidorka] | 85.2 nM | 471 nM | 744 nM | 240 nM | 65.6 nM
11 | UUUACAUGAGGAUCACCCAUGUGCCAUGAUACCAGACAUGAAAAUGUCCCUUGGCAGCAUGGGUGUAGCGUCGGGAAACCGACGC [Kohoutovice] | 97.5 nM | 545 nM | 909 nM | 14 nM | 35 nM
12 | ACAAGAGGGAUGGAUACCAGCGACAUGAGGAUCACCCAUGUAUGAGGAUCAGCCAUGUUAUGCCCUUGGCAGCCACGAACAUCAG [SSAMULLIN] | 27.5 nM | 30.8 nM | 125 nM | 18.2 nM | 21.2 nM
13 | AAAACUCAUGGCUUAUAUCCGUGUCUCGAAGGAGCGUACAGCGGUACAGGUAGGUCGCGAGACAUGAGGAUCACCCAUGUGUAAA [XArg-A 20 V1&2 original #dotplot2>1] | 22.3 nM | 119 nM | 1.46 nM | 0.526 nM | 38.1 nM
14 | UCUAACAUGAGGAUCACCCAUGUGGGUUAUCGAGGACCGGUACGGCCGCCACUCGACCAGUAUAACUGGCUAGAACGUAUUUGAU [theeternabot_sameState_MS2_Trp_A_34] | 31.1 nM | 53.6 nM | 49.4 nM |  | 
15 | GGCACCAGGAGAAGGAGCGUGAAGACAUGAGGAUCACCCAUGUAGAGGCCCGGACCGGGUUCGCAGGUAGGUCGCUCCUGGUGCC [#1 Same State - Arginine B Attempt #15 (HarryS)] | 10 nM | 17.9 nM | 23 nM | 16.9 nM | 15.6 nM
16 | AUAUAUAUGCGAAGGAGCGGGAAAUAUAUAUAUAUAAUCCUAACAUGAGGAUCACCCAUGUCCCAGGUAGGUCGCGCAUAUAUAU [12.A] | 68.2 nM | 88.5 nM | 87 nM | 72.2 nM | 74 nM
17 | UACCCAUGAGUUGGAAAAGCUCAUGGGUAUCGAGGACCGGUACGGCCGCCACUCGGCUGUACAUGAGGAUCACCCAUGUCAGGGU [#1 Same State - Tryptophan A Attempt #24 (HarryS)] | 29.9 nM | 367 nM | 721 nM |  | 
18 | AAUGUAUUCCACAUGAGGAUCACCCAUGUGCGAGGACCGGUACGGCCGCCACUCGGUGUUGGGAUCUGUUCUGAAUACAUUAAUG [XTryp A #23] | 30.8 nM | 37.5 nM | 40.3 nM |  | 
19 | ACAUGAGGAUCACCCAUGUAAAUCCUCGAUACCAGCCAAAGGAGAGGCCCUUGGCAGCGGAAAGGCCGGGUAUAAAUGUCCGGCC | 71.6 nM | 151 nM |  | 125 nM | 

Row | Sequence | apparent KD of MS2 coat protein (input ligand: arginine 13.2 mM) | apparent KD of MS2 coat protein [1] | apparent KD of MS2 coat protein [2] | apparent KD of MS2 coat protein [3] | apparent KD of MS2 coat protein (input ligand: none)
20 | UGGAGUAGGGUAAAUAGGAUAAGUACAGAAGGAGCGCGAAUAAACGCAGGUAGGUCGCUGGAACACAUGAGGAUCACCCAUGUUG [Same State Arginine A GF 24] | 20.9 nM | 26.2 nM | 17.8 nM | 25.4 nM | 25.4 nM
21 | UUUUAACAUGAGGAUCACCCAUGUAAUGAUACCAGAGACGAAAGUCUCCCUUGGCAGCAUAUAUCAUUACUCAUAGGAAACUAUG [Theophylline A 6] | 35.4 nM | 23.5 nM |  | 13.6 nM | 
22 | GUCUCUGGGAGAAGGAGCGUGAAGACAUGAGGAUCACCCAUGUAGAGGCGCCGACGGCGUUCGCAGGUAGGUCGCUCCCAGAGAC [#1 Same State - Arginine B Attempt #18 (HarryS)] | 18.9 nM | 44.5 nM | 110 nM | 14 nM | 23.9 nM
23 | AAUCGGAGAUGAAGGAGCGCGUACAUGAGGAUCACCCAUGUAUCAAAGCUUCUCCCGUGUAUGCAGGUAGGUCGCAUUUCCACGU [Ceriedan] | 10.1 nM | 13 nM | 9.18 nM | 9.9 nM | 9.12 nM
24 | AUUCAUGGAAACAUGACAUAGGGAUCCGGUCGAGGACCGGUACGGCCGCCACUCGUUUGGAGGCACAUGAGGAUCACCCAUGUUA [SS Tryp A #7] | 40.7 nM | 118 nM | 101 nM |  | 
25 | AUACAUGAGGAUCACCCAUGUUAUAGUGAAGGAGCGACGUUUAUGUCAGGUAGGUCGCACUGUUGUUUAAUGAUUCUUGGAUCUU [#21 Exclusion - Arginine A] | 15.3 nM | 22.5 nM | 13.5 nM | 16.4 nM | 13.2 nM
26 | UGUGGGCGCACGGCCGCCACUGUCUUCAUCUGUUUGUCUACAUGAGGAUCACCCAUGUUGGUUUACAGGACCGGGUGCAUCUAUG [SSTryp B #12] | 39.5 nM | 80.8 nM | 52.1 nM |  | 
27 | AGGACGGUCGGAAGGAGCGGUACAUGAGGAUCACCCAUGUAUUCCUGGGCAUCCGUAGUGUGCCAGGUAGGUCGCCGAUUGCGGG [XArg-B7] | 57.6 nM | 109 nM | 103 nM | 64.8 nM | 32.7 nM
28 | GGAAUUAAGACUGAUACCAGUCAAGAUAAUCAUAAGAAUAAACAUGAGGAUCACCCAUGUGACCCUUGGCAGCAGACUAAUACCG [Same State Theophylline B GF 26] | 38.5 nM | 51.1 nM |  | 39.2 nM | 
29 | UUUCUUUUCUUUCUUUCCUUUCAAACCGAAGGAGCGGGAACAAACCCAGGUAGGUCGCGGUGUGACAUGAGGAUCACCCAUGUGU [Exclusion - Arginine] | 65.5 nM | 106 nM | 85 nM | 58.1 nM | 78 nM
30 | AGUAGUUGACAAAAGUCAGCUACAAUUGAAGGAGCGGGUGGGUGCCCAGGUAGGUCGCAAUAACAUGAGGAUCACCCAUGUAUAA [ArgAS 2 #BothOrNeither #OpenEnded] | 20 nM | 22.9 nM | 27.2 nM | 17.9 nM | 21 nM
31 | UCACGACGCAACGUGAGAUAAUGAACAGAAGGAGCGAGGAGAGCCUCAGGUAGGUCGCUGACAUGAGGAUCACCCAUGUAUUACA [Same State Arginine A GF6] | 63.8 nM | 84.2 nM | 80 nM | 65.2 nM | 82.8 nM
32 | ACACAUGAGGAUCACCCAUGUCCAAUAGAUACCAGUGAUACGGUGCACCCUUGGCAGCUGUUACUGAGUGAUGGUUCCCUCGGAA [Same State Theophylline A GF3] | 48.1 nM | 81.9 nM |  | 58.7 nM | 
33 | AUACAUGAGGAUCACCCAUGUCAUACAGAAGGAGCGUCACAUAAGACAGGUAGGUCGCUGAUAAAUGGAUUAUAGUUUAUGAUUA [JR_SSArginiA_Sub016] | 17.5 nM | 29.6 nM | 20.3 nM | 18.7 nM | 18.6 nM
34 | UCAGUGCAAGGAAGGAGCGGGUACAUGAGGAUCACCCAUGUGCAAGUGGUGAGUGUUCGUGCCCAGGUAGGUCGCCUAGCCUGGU [XArg-B19] | 36.4 nM | 122 nM | 348 nM | 54.5 nM | 192 nM
35 | UGGAGUAUCAGACAUGAGGAUCACCCAUGUCGAGGACCGGUACGGCCGCCACUCGGCAGUUUGCGUCCUCAGGUACUCCGGGUAA [Edlatearis] | 16.8 nM | 26.9 nM | 15.3 nM | 27.7 nM | 11.2 nM
36 | CAAUUUAGAAAACUAAAUUGAGUGGGUGAACGAGGACCGGUACGGCCGCCACUCGGACAUGAGGAUCACCCAUGUCCAUGUGAAA [AstrosExyTryA#23] | 11.3 nM | 15.8 nM | 16.6 nM | 29.2 nM | 14.8 nM
37 | CGGCCCUCACACGAGGAUCACCCGUGUGAUACCAGCCUGGAAACAGGCCCUUGGCAGCACAAGGUCAUCAAAGAUGACCAAGCCG [TheoAX 22 #SwitchBubble] | 9.52 nM | 18 nM | 31.8 nM | 12.6 nM | 11.9 nM
38 | CAGCCACAUGAGGAUCACCCAUGUGAUGAUACCAGCUUCGUCUUAAGCCCUUGGCAGCAUAUCUCUUUGUUCUCAUACAUAGCAU [theeternabot_sameState_MS2_Theo_A_16] | 12 nM | 17.3 nM |  | 11.4 nM | 
